Measurements published in patent US11466255B2, “Methods and compositions for converting non-endocrine pancreatic tissue into insulin-producing cells” (UNIVERSITY OF MIAMI, priority 2015, dated 2022).

Legend:
[1] = system: pure islet preparations; assay: Pure islet preparations treated with BMP-7 (colony formation); assay type: cell-based, human; conditions: n=3
[2] = system: hNEPT; assay: C-peptide content (ELISA, normalised to DNA) of hNEPT; assay type: cell-based, human; conditions: for induction of C-peptide compared to t=0: n=4, P=0.06
Description: hNEPT culture: Human islets were isolated at the DRI's cGMP facility following methods already described54, and hNEPT samples (2-4 ml) were obtained as an isolation byproduct. The cells were washed and seeded on tissue culture-treated plates in FBS- and trypsin inhibitor-supplemented RPMI 1640 medium (Gibco-Life Technologies, Grand Island, N.Y.). After 48 h, floating cells were removed with fresh medium replacement. The following day, cultures were either treated with 100 ng/ml BMP-7 (ProSpec-Tany TechnoGene; Ness Ziona, Israel) or remained in the starting medium as controls. Cells were allowed to grow 4-5 days and then the serum-containing medium was replaced by serum-free Advanced RPMI 1640 (Gibco-Life Technologies, Grand Island, N.Y.). Four to five days later the cells were either subjected to static incubation to evaluate their ability to respond to changing glucose concentration or collected for further assessments (such as C-peptide content, immunohistochemistry or cellular composition) or transplantation.
(§1) Glucose-stimulated insulin release (GSIR) and total insulin determination: GSIR was performed in six-well plate cultures. BMP-7-treated samples and untreated controls were washed twice with DMEM medium containing 2.5 mM glucose (Low glucose medium or L-medium). Upon addition of 2 ml of the same medium, the cells were cultured for 1 h at 37° C. to bring their insulin secretion to baseline. After 2 more washes, 1 ml of L-medium was added and the cells were returned to the incubator for 1 h. At the end of incubation period, the medium was collected and the cells exposed for 1 h to 1 ml of 20 mM glucose DMEM medium (high glucose medium or H-medium). After the collection of the H-medium supernatant, the cells were washed three times with L-medium and cultured again in low glucose conditions for 1 h. As before, supernatant was collected at the end of the incubation period. The second low glucose incubation is necessary to confirm that the cells are responding to glucose concentration changes in a physiological manner and not dumping insulin. After the last incubation, the cells were collected, washed in PBS and lysed with 1 ml of T-Per (Thermo Scientific, Rockford, Ill.). The lysates and the supernatants from GSIR test were evaluated with ELISA for C-peptide content (Mercodia, Uppsala, Sweden) following manufacturer's instructions. DNA content of the lysates was used to normalize the results (Pico-Green dsDNA Assay Kit, Life Technologies-Molecular Probes, Grand Island, N.Y.).

[3] = system: hNEPT; assay: Glucose-stimulated insulin secretion (GSIS) and perifusion; assay type: cell-based, human; conditions: day 12; 2.5 mM vs 20 mM glucose
Description: as §1, with “After the last incubation, the cells were collected, washed in PBS and lysed with 1 ml of T-Per (Thermo Scientific, Rockford, Ill.).” left out, “DNA content of the lysates was used to normalize the results (Pico-Green dsDNA Assay Kit, Life Technologies-Molecular Probes, Grand Island, N.Y.).” left out
Perifusion studies: Perifusion was performed as described58. […] Insulin release was determined with the Human Insulin ELISA Mercodia Kit (Uppsala, Sweden) following the manufacturer's instructions.

[4] = system: ALK3+ cells from hNEPT; assay: BMP-7 response of ALK3-enriched / ALK3+-sorted fraction; assay type: cell-based, human
Description: (§2) Magnetic bead-based methods (Miltenyi) were used for the enrichment of ALK3+ cells from hNEPT. Both enriched and negative fractions are subsequently plated and treated with BMP-7 or left untreated (controls).
(§3) The identity of sorted cells is confirmed by IF, and aliquots are cultured in adherent conditions. Single sorted pancreatic cells are notoriously difficult to culture in plastic, which is addressed by using a combination of Matrigel®-coated plates and fully defined media [STEMPRO® (Thermofisher Scientific, Grand Island, N.Y.) or Kubota's Medium® (PhoenixSongs Biologicals Branford, Conn.)]^8,29,48,49 Matrigel® is used to grow multipotent pancreatic cells^50,51. Colonies from dissociated ALK3^+ cells sorted from fresh hNEPT are readily grown in these conditions, and resemble those obtained from the MPD without sorting. The typical “ring” morphology described by others^50,51 is observed when plating ALK3^+ cells in 3D conditions or fibroblast feeder cells.

[5] = system: ALK3- fraction of hNEPT; assay: BMP-7 response of ALK3- fraction; assay type: cell-based, human; conditions: qRT-PCR
Description: as §2, §3

[6] = system: stz-treated diabetic mice; assay: Systemic BMP-7 in stz-treated diabetic CD1 mice; assay type: in vivo, mouse; conditions: BMP-7 500 μg/kg IP daily for 30 days, stz 200 mg/kg
Description: Systemic BMP-7 (500 μg/kg) is administered to CD1 mice by means of intraperitoneal (IP) injection daily for 30 days. This dose is within the range reported for rodents in other BMP administration settings^18,67-69, and is refined in subsequent preclinical experiments. Acute diabetes is induced by a single injection of stz (200 mg/kg) prior to BMP-7 treatment. Controls receive saline by the same route. […] Similar doses^18 are effective at reversing kidney fibrosis. Ten animals/group are used. Half of the animals in each group receive BrdU in the water. Mice are euthanized 30 days after initiation of treatment, or earlier if diabetes reversal is observed. Glycemia is monitored daily at the same time, right before injection. IPGTTs and determination of PI/I ratios is done at 14 and 30 days. Upon euthanasia, the pancreas and other organs are harvested and analyzed by a pathologist to establish if there are tumorigenic or otherwise toxic effects associated with the treatment. The pancreas is also studied by IF in search of potential β-cell/endocrine cell neogenesis and/or signs of β-cell/endocrine cell proliferation (BrdU-treated animals) when compared to saline-treated controls. […] Relative quantification of β-cell/endocrine cell neogenesis are done using normalized total insulin quantification and the imaging techniques described in Example 4 and^17. […]

[7] = reconstituted solution; cited from earlier work
[8] = system: stz-treated mice; conditions: systemic BMP-7; cited from earlier work

B1: BMP-7: 35 kDa homodimeric protein of the TGF-β superfamily; FDA-approved agent; human mature chain SEQ ID NO:1/2 (protein, listed as Homo sapiens)
chain: IRSTGSKQRSQNRSKTPKNQEALRMANVAENSSSDQRQACKKHELYVSFRDLGWQDWIIAPEGYAAYYCEGECAFPLNSYMNATNHAIVQTLVHFINPETVPKPCCAPTQLNAISVLYFDDSSNVILKKYRNMVVRACGCH
modifications: homodimer; human mature chain of BMP-7 (NCBI Reference Sequence NM_001719.2) comprising peptide from 293-431
colony formation [1]: failed to give rise to colonies
C-peptide production induction vs. t=0 ([2]; BMP-4 vs BMP-7 comparison, n=6, P=0.43): 156±32 fold
induction of C-peptide compared to t=0 ([2]; BMP-7 alone, dorsomorphin experiment): 314.1±152 fold
induction of C-peptide compared to t=0 ([2]; BMP-7 in the presence of dorsomorphin (DM)): 107.8±34.3 fold
C-peptide induction vs. t=0 ([2]; THR-123 vs BMP-7 comparison, n=4, P=0.25): 261±102 fold
average increase in total C-peptide vs. the initial material ([2]; day 12 vs day 0, 8 independent hNEPT preparations): two orders of magnitude
glucose responsiveness of induced clusters [3]: glucose responsive
increase in insulin expression vs. non-BMP-7 treated controls ([4]; ALK3+-sorted cells, preliminary qRT-PCR): 10^3 fold
response in terms of C-peptide production ([4]; magnetic bead ALK3-enriched fraction, only this fraction responds): BMP-7-responsive
response to BMP-7 [5]: did not show any response
glycemia vs. controls [6]: glycemic improvements
time reconstituted BMP-7 is active [7]: 2 to 7 days
effect on hyperglycemia of stz-treated mice [8]: corrected the hyperglycemia
